Laboratory results as given in PMC8190095, “Structural basis for inhibition of the AAA-ATPase Drg1 by diazaborine” (Nature Communications, 2021).

What was measured:
[1] = target: the molecule itself; experiment: cryo-EM structure; single-particle cryo-EM of full-length wild-type Drg1, 1.75 mg/ml, with 2 mM ATPγS and 200 µg/ml (740 µM) thieno-diazaborine 2b18; 20 mM HEPES-KOH, 150 mM KOAc, 5 mM Mg(OAc)2, 0.005% Tween-20, 1 mM DTT, pH 7.6; no symmetry imposed
[2] = target: T1, GST-Rlp24C fragment (C-terminal fragment of the substrate protein Rlp24) (yeast, UniProt Q07915 147-199); experiment: SPR; Biacore X100; 200 RU GST-Rlp24C amine-coupled on a CM5 chip, GST alone in the reference cell; 2 µM Drg1 with 1 mM ATPγS injected with or without 200 µg/ml diazaborine; 120 s association, 180 s dissociation; 20 mM HEPES-KOH, 150 mM KOAc, 5 mM Mg(OAc)2, 0.1% Tween-20, 1 mM DTT, pH 6.8; half-life from one-phase exponential decay; details: both partners purified
T1 construct: Rlp24, shuttling ribosome maturation factor of yeast, C-terminal fragment Rlp24C; The GST fusion was immobilised in SPR; also called Rlp24C-domain; source: purified
T1 sequence (looked up): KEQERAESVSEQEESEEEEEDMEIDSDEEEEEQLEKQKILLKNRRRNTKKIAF

fold slower dissociation with diazaborine against without [2]: 2 fold
B1: Drg1 (AAA-ATPase), full-length wild type (enzyme, yeast, UniProt P32794 1-780, looked up)
chain: MAPKSSSSGSKKKSSASSNSADAKASKFKLPAEFITRPHPSKDHGKETCTAYIHPNVLSSLEINPGSFCTVGKIGENGILVIARAGDEEVHPVNVITLSTTIRSVGNLILGDRLELKKAQVQPPYATKVTVGSLQGYNILECMEEKVIQKLLDDSGVIMPGMIFQNLKTKAGDESIDVVITDASDDSLPDVSQLDLNMDDMYGGLDNLFYLSPPFIFRKGSTHITFSKETQANRKYNLPEPLSYAAVGGLDKEIESLKSAIEIPLHQPTLFSSFGVSPPRGILLHGPPGTGKTMLLRVVANTSNAHVLTINGPSIVSKYLGETEAALRDIFNEARKYQPSIIFIDEIDSIAPNRANDDSGEVESRVVATLLTLMDGMGAAGKVVVIAATNRPNSVDPALRRPGRFDQEVEIGIPDVDARFDILTKQFSRMSSDRHVLDSEAIKYIASKTHGYVGADLTALCRESVMKTIQRGLGTDANIDKFSLKVTLKDVESAMVDIRPSAMREIFLEMPKVYWSDIGGQEELKTKMKEMIQLPLEASETFARLGISAPKGVLLYGPPGCSKTLTAKALATESGINFLAVKGPEIFNKYVGESERAIREIFRKARSAAPSIIFFDEIDALSPDRDGSSTSAANHVLTSLLNEIDGVEELKGVVIVAATNRPDEIDAALLRPGRLDRHIYVGPPDVNARLEILKKCTKKFNTEESGVDLHELADRTEGYSGAEVVLLCQEAGLAAIMEDLDVAKVELRHFEKAFKGIARGITPEMLSYYEEFALRSGSSS
notes: Drg1, hexameric type II AAA-ATPase of yeast (N-domain, D1 and D2 AAA-domains), full-length wild type; the atomic model covers amino acids 239-780 of each of the six monomers; Hexamer in the presence of nucleotide (ATPγS); also called Drg1 wild type; wild-type Drg1; source: overexpressed in yeast as GST-Drg1, purified (GSH-agarose, eluted by Prescission protease cleavage from the GST-tag)
stoichiometry N [1]: 6
